Source: article PMC7293015 (Nucleic Acids Research, 2020)

T1: AfBax1 mutant D133A/E135A (Archaeoglobus fulgidus, UniProt O29890 1-468, D133A | E135A)
T1 construct: Expression and purification of the mutants are not described; also called AfBax1 with substitutions D133A/E135A
T1 sequence: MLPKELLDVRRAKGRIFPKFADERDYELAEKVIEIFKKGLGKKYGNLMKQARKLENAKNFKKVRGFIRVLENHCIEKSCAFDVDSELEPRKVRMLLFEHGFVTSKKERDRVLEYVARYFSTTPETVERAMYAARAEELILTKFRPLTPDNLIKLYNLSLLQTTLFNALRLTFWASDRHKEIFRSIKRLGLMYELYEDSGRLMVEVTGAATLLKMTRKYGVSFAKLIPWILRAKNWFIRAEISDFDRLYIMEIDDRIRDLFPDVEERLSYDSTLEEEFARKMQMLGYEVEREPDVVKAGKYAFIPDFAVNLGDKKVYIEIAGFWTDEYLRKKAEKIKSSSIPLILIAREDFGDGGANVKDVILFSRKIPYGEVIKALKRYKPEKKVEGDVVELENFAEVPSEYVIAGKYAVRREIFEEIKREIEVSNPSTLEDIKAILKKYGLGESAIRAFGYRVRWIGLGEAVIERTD

T2: StBax1 mutant R86A/R87A (Sulfolobus tokodaii, UniProt Q970I1 1-481, R86A | R87A)
T2 construct: Expression and purification of the mutants are not described
T2 sequence: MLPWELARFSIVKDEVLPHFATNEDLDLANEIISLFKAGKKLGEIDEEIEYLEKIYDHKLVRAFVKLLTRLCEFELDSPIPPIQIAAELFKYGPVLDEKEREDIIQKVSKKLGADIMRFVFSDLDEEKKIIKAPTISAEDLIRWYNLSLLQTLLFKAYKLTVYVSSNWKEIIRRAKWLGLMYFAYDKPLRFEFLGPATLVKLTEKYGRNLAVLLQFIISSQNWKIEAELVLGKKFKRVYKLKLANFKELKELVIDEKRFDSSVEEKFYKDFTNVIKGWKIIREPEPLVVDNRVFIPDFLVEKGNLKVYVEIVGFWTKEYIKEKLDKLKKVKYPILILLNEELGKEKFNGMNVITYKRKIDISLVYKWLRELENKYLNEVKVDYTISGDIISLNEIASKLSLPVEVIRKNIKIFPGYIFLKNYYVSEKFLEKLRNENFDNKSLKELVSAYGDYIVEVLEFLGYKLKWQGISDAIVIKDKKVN

B1: His6-AfXPB (Archaeoglobus fulgidus XPB) (enzyme, UniProt O29889 1-452, looked up)
chain: MQMIAEIYYERGTIVVKGDAHVPHAKFDSRSGTYRALAFRYRDIIEYFESNGIEFVDNAADPIPTPYFDAEISLRDYQEKALERWLVDKRGCIVLPTGSGKTHVAMAAINELSTPTLIVVPTLALAEQWKERLGIFGEEYVGEFSGRIKELKPLTVSTYDSAYVNAEKLGNRFMLLIFDEVHHLPAESYVQIAQMSIAPFRLGLTATFEREDGRHEILKEVVGGKVFELFPDSLAGKHLAKYTIKRIFVPLAEDERVEYEKREKVYKQFLRARGITLRRAEDFNKIVMASGYDERAYEALRAWEEARRIAFNSKNKIRKLREILERHRKDKIIIFTRHNELVYRISKVFLIPAITHRTSREEREEILEGFRTGRFRAIVSSQVLDEGIDVPDANVGVIMSGSGSAREYIQRLGRILRPSKGKKEAVLYELISRGTGEVNTARRRKNAAKGAA
notes: residues 1-445 and 17 residues of the N-terminal His6 tag are seen in the crystal; also called full length AfXPB; source: E. coli Rosetta (DE3) pLysS, purified (heat step, HisTrap, HiTrap SP, Sephacryl S-200); not shown: His6, N-terminal, kept
B2: StXPB mutant E357A/E360A (enzyme, Sulfolobus tokodaii)
chain: MVYLRYFKGLILSDAYAPGLKWSDELKAYSALAFKYRDVRKYFLEKEIEVEENVIDSLPFPLIKDKIELRDYQAEAVKAWLKEKRGIIVLPTGAGKTQVALKIVSIMKVATLIVVPTIDLITQWKERINKYLDFDPGIIGGGEDSLKGITVITYDSAYTRAEELGNKFPLLIFDEVHHLPSEGYSIMAQLFASPYRLGLTATPERDDGKHELYPILVGPIVYRKSVEELAGKYIAKYKIKKLYVSLTNEEKKRYDGLRKKLKDFLSSRGLKLQNLDDFHRLVKLAAKDKEAREALLAWHESLNIAVNSQSKIEKLREILQEYKNEKIIVFTRDTQMAYRISKTFLIPVVTYKTDKDAREAILQKFRDGEYRVIVASTVFDEGVDVPDATLAIVMGGYGTKRQFLQRLGRILRKKDKEALLIEIVTKGTADYRLSRRRRE
notes: Expression and purification of the mutants are not described
B3: His6-StBax1 (Sulfolobus tokodaii Bax1) (enzyme, UniProt Q970I1 1-481, looked up)
chain: MLPWELARFSIVKDEVLPHFATNEDLDLANEIISLFKAGKKLGEIDEEIEYLEKIYDHKLVRAFVKLLTRLCEFELDSPIPPIQIRRELFKYGPVLDEKEREDIIQKVSKKLGADIMRFVFSDLDEEKKIIKAPTISAEDLIRWYNLSLLQTLLFKAYKLTVYVSSNWKEIIRRAKWLGLMYFAYDKPLRFEFLGPATLVKLTEKYGRNLAVLLQFIISSQNWKIEAELVLGKKFKRVYKLKLANFKELKELVIDEKRFDSSVEEKFYKDFTNVIKGWKIIREPEPLVVDNRVFIPDFLVEKGNLKVYVEIVGFWTKEYIKEKLDKLKKVKYPILILLNEELGKEKFNGMNVITYKRKIDISLVYKWLRELENKYLNEVKVDYTISGDIISLNEIASKLSLPVEVIRKNIKIFPGYIFLKNYYVSEKFLEKLRNENFDNKSLKELVSAYGDYIVEVLEFLGYKLKWQGISDAIVIKDKKVN
notes: Homodimer when alone in solution (size-exclusion chromatography); one copy in the heterodimer with StXPB; source: E. coli Rosetta (DE3) pLysS, from pET15b, purified (heat step, ammonium sulfate, HisTrap, gel filtration)
B4: His6-AfBax1 (Archaeoglobus fulgidus Bax1) (enzyme)
chain: MLPKELLDVRRAKGRIFPKFADERDYELAEKVIEIFKKGLGKKYGNLMKQARKLENAKNFKKVRGFIRVLENHCIEKSCAFDVDSELEPRKVRMLLFEHGFVTSKKERDRVLEYVARYFSTTPETVERAMYADREEELILTKFRPLTPDNLIKLYNLSLLQTTLFNALRLTFWASDRHKEIFRSIKRLGLMYELYEDSGRLMVEVTGAATLLKMTRKYGVSFAKLIPWILRAKNWFIRAEISDFDRLYIMEIDDRIRDLFPDVEERLSYDSTLEEEFARKMQMLGYEVEREPDVVKAGKYAFIPDFAVNLGDKKVYIEIAGFWTDEYLRKKAEKIKSSSIPLILIAREDFGDGGANVKDVILFSRKIPYGEVIKALKRYKPEKKVEGDVVELENFAEVPSEYVIAGKYAVRREIFEEIKREIEVSNPSTLEDIKAILKKYGLGESAIRAFGYRVRWIGLGEAVIERTD
notes: residues 1-467 are seen in the crystal of the untagged form; Used in ITC as His6-AfBax1; also called wild type AfBax1; source: E. coli Rosetta, from pET-28b, purified in the same way as His6-AfXPB
B5: His6-AfXPB C-terminal half (residues 234-452) (domain or fragment, Archaeoglobus fulgidus, UniProt O29889 234-452, looked up)
chain: LAGKHLAKYTIKRIFVPLAEDERVEYEKREKVYKQFLRARGITLRRAEDFNKIVMASGYDERAYEALRAWEEARRIAFNSKNKIRKLREILERHRKDKIIIFTRHNELVYRISKVFLIPAITHRTSREEREEILEGFRTGRFRAIVSSQVLDEGIDVPDANVGVIMSGSGSAREYIQRLGRILRPSKGKKEAVLYELISRGTGEVNTARRRKNAAKGAA
notes: also called AfXPB-CTD; His6-AfXPB-CTD; source: purified

How the values were obtained:
[1] = biological target: StBax1 mutant L89A/F90A/P94S/V95S (Sulfolobus tokodaii) (UniProt Q970I1); assay: ITC; His6-StXPB (30 uM) injected into His6-StBax1 (3 uM); 16 injections of 2.36 ul; 40 C; 10 mM Tris-Cl pH 7.5, 200 mM NaCl, 5% glycerol, 0.01% sodium azide; single binding site fit; similar procedures for mutants
[2] = biological target: B4; assay: ITC; His6-AfXPB (139.5 uM) or His6-AfXPB-CTD (202 uM) injected into His6-AfBax1 (13.3 uM); 16 injections of 2.36 ul; 40 C; 10 mM Tris-Cl pH 7.5, 500 mM NaCl, 5% glycerol, 0.01% sodium azide; single binding site fit; similar procedures for mutants; conditions: both partners purified
[3] = biological target: T1, AfBax1 mutant D133A/E135A; assay: as above; conditions: both partners purified
StBax1 mutant R86A/R87A = biological target: T2, StBax1 mutant R86A/R87A; assay: ITC; His6-StXPB (30 uM) injected into His6-StBax1 (3 uM); 16 injections of 2.36 ul; 40 C; 10 mM Tris-Cl pH 7.5, 200 mM NaCl, 5% glycerol, 0.01% sodium azide; single binding site fit; similar procedures for mutants; conditions: both partners purified
[4] = biological target: the molecule itself; assay: SEC; S200 size-exclusion chromatography of the proteins alone and mixed; calibrated with Conalbumin (75 kDa), Ovalbumin (44 kDa) and Lactalbumin (14 kDa)

Molecule	Kd [2]	stoichiometry N [2]	stoichiometry N [4]	further results
His6-StXPB (Sulfolobus tokodaii XPB, XPBII) (from UniProt Q970I2 1-439) (enzyme)				stoichiometry N [1]: 1
B1	15.2 nM	1		Kd [3]: 157 nM; stoichiometry N [3]: 1
B2				Kd (StBax1 mutant R86A/R87A): 64.9 nM; stoichiometry N (StBax1 mutant R86A/R87A): 1
B3			2	
B4			2	
B5	0.5 nM	1		
